Laboratory results reported in PMC4580526 (Journal of bone and mineral research : the official journal …, 2015).
Changes are numbered by the printed parent chain. Each block holds one molecule with its values, some of them ahead of it.

Tests used:
[1] = molecular target: PTH receptor type-1 (PTH1R), wild-type human (human) (UniProt Q03431); assay: radioligand binding
[2] = molecular target: PTH receptor type-1 (PTH1R), wild-type human (human) (UniProt Q03431)
COS-7 cells = assay: Secretion of PTH into conditioned medium of transfected COS-7 cells; type: cell-based; details: for PTH level in conditioned medium, PTH(1-84) assay / PTH level in conditioned medium, ntPTH assay: 48 hours after transfection, mean ± SEM

UniProt Q03431, sequence (Q03431 27-593): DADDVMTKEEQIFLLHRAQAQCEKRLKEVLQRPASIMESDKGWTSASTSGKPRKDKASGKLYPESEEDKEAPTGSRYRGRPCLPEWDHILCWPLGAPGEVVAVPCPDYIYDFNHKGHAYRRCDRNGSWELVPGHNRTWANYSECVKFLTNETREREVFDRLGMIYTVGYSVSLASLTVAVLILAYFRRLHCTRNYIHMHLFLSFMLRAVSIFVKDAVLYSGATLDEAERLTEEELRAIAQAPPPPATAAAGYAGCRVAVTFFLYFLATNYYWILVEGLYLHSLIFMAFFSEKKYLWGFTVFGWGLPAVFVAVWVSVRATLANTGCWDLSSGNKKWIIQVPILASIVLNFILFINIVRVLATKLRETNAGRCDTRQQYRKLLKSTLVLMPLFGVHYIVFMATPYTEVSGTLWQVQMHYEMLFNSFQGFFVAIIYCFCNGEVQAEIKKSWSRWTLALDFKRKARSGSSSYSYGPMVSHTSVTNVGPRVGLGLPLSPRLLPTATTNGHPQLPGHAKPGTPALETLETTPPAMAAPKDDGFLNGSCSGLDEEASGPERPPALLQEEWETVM

IC50 [1]: 0.0123 µM
PLC/IP signaling EC50, IP1 in GP-2.3 cells (Cisbio IP1 assay kit) [2]: 0.265 µM
cAMP signaling EC50, Glosensor luminescence in SGS-72 cells (SaOS-2-derived) [2]: 0.00027 µM
Molecule: [Cys25]PTH(1-34) (peptide)

B1: [Cys25]PTH(1-84): mutant hormone with arginine-to-cysteine mutation at position 25 of mature PTH(1-84) (protein, UniProt P01270 32-115, looked up, variant R25C)
Parathyroid hormone: SVSEIQLMHNLGKHLNSMERVEWLCKKLQDVHNFVALGAPLAPRDAGSQRPRKKEDNVLVESHEKSLGEADKADVNVLTKAKSQ
modifications: Parathyroid hormone
PTH level in conditioned medium, PTH(1-84) assay (COS-7 cells): 1812 ± 175 pg/mL
PTH level in conditioned medium, ntPTH assay (COS-7 cells): 30.9 ± 23 pg/mL
secretion of mutant hormone into the medium (COS-7 cells; transfected COS-7 cells): efficiently secreted into the medium

B2: PTH(1-84): wild-type hormone expressed from plasmid encoding wild-type preproPTH in COS-7 cells (protein, UniProt P01270 32-115, looked up)
Parathyroid hormone: B1 Parathyroid hormone with C25R
modifications: Parathyroid hormone
PTH level in conditioned medium, PTH(1-84) assay (COS-7 cells): 1812 ± 94 pg/mL
PTH level in conditioned medium, ntPTH assay (COS-7 cells): 2285 ± 277 pg/mL
